Values quoted from earlier work as cited in publication PMC3995210.

Biological target: dynein intermediate chain (IC) (Drosophila melanogaster) (UniProt Q24246)
Test: ITC

Chain of UniProt Q24246 (Q24246 whole entry): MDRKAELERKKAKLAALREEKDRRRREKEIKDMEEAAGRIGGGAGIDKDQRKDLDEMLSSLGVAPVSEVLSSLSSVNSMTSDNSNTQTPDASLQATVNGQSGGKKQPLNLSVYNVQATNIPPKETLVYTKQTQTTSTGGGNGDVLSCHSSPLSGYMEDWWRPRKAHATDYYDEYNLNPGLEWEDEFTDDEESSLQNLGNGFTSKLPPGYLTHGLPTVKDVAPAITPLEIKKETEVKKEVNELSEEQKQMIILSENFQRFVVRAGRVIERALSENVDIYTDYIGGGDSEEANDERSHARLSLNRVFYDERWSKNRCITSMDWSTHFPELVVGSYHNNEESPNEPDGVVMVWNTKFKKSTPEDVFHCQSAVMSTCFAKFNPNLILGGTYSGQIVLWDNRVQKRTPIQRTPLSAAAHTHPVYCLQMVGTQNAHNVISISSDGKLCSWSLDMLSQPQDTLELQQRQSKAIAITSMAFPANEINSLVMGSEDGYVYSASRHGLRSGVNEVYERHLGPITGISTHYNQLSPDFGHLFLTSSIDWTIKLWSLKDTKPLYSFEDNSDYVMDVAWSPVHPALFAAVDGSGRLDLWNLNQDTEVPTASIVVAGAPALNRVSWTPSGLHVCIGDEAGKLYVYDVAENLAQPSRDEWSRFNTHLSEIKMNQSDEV

LC8 (from UniProt Q24117)
Kd: 9.8 µM
